In PMC8402544:

Biological target: Aedes aegypti membrane-bound alkaline phosphatase (Aa-mALP), 54 kDa His(6)-tagged (Aedes aegypti)
Assay: ELISA; sandwich ELISA; Aa-mALP (2.5 µg) coated on 96-well plates in 50 mM carbonate buffer pH 9.0; ligands at 100, 200, 300 and 400 nM, 37 °C, 2 h; detected with rabbit anti-Cry4Ba antibodies and HRP anti-rabbit IgG; apparent Kd; relative binding with Wt-R203Q set at 100%

Row | Substance | Kd
1 | 65 kDa Cry4Ba-R203Q full-length (trypsin-activated) toxin (natural protein) | 80 nM
2 | 21 kDa isolated Cry4Ba-DIII fragment (domain or fragment) | 110 nM
